According to paper doi:10.1101/2020.08.13.249722:

Target: …-Toyopearl (PTCH peptide, positive control)
Experiment: equilibrium adsorption on peptide resin

percent of the incubated protein bound: > 73%
Substance: tandem WW domain of Yes-Associated Protein 1 (WW-YAP), soluble recombinant human protein (domain or fragment)
